Experimental data from paper PMC3025356, “Mechanism of the Ca^2+-Dependent Interaction between S100A4 and Tail Fragments of Nonmuscle Myosin Heavy Chain IIA” (Journal of Molecular Biology, 2011).

Tests used:
[1] = cited from earlier work
Source text: Apart from the different methods used to study Ca^2+ binding, which have sensitivities over different concentration ranges, part of the variability in Kd values in the literature may arise from the self-association of S100A4. There is a general consensus[12,13,17,21,22] that S100A4 exists predominantly as a dimer at micromolar concentrations (indeed, this can lead to difficulties in interpreting literature values for stoichiometries quoted as ‘moles of Ca^2+ bound per mole of S100A4’ if the latter is not stated explicitly as being per monomer or per dimer). In the absence of Ca^2+, monomeric S ... || In the absence of added Ca^2+ (i.e., where the free “contaminant” [Ca^2+] in buffers would be of the order of 1 μM), mixing S100A4 with excess Quin-2 produced a small-amplitude signal (corresponding to 0.1 mol of Ca^2+ per mole of S100A4 monomer) with a rate constant of around 1 s^− 1.

[2] = tested on: M200 filaments; test: Stopped-flow turbidity, dissociation of M200 filaments on NaCl jump or dilution; assay type: biochemical, human
Description: Fig. 9 Dissociation of M200 filaments by S100A4. (a) Initially, M200 was added (i) from a concentrated stock in 0.5 M NaCl to give a final concentration of 5 μM M200 (with respect to the polypeptide chain) in 100 mM NaCl, 10 mM Hepes, and 0.1 mM Ca^2+ at pH 7.5 and 20 °C. A biphasic rise in turbidity was recorded for 200 s (continuous line). Then 10 μM S100A4 (with respect to monomer concentration) was added (ii), followed by 0.2 mM EGTA (iii) and 1 mM Ca^2+ (iv). […] (b) M200 was diluted (i) into 100 mM NaCl to form filaments as in (a), then 5 μM S100A4 was added (ii), causing a 54% drop in turbidity. A further 5 μM S100A4 (iii) caused turbidity to fall to almost zero. (c) Stopped-flow records monitoring the dissociation of 5 μM M200 filaments on jumping [NaCl] from 100 mM to 120 mM NaCl. Other components of the buffer were 20 mM Hepes, 1 mM Mg^2+, and 100 μM Ca^2+ at pH 7.5 and 20 °C. […] In the presence of 20 μM S100A4 (lower trace), the turbidity decreased by 87% with a rate constant of 0.2 s^− 1.
It is of interest to know whether S100A4 drives depolymerisation solely by binding to free M monomer and allowing the polymer equilibrium to readjust (i.e., via k− 4 and k5), or whether S100A4 also binds to the filament bundle and actively depolymerises an M200 unit (via k6 and k− 7). […] In an attempt to address this question, the dissociation rate of the M200 filament was followed on jumping the NaCl concentration from 100 mM to 120 mM in the absence and in the presence of S100A4 (Fig. 9c). Under these conditions in the absence of S100A4, turbidity dropped to about 50% of its initial value with a profile fitted to a double exponential (k1obs = 0.33 s^− 1 with 12% amplitude and k2obs = 0.037 s^− 1 with 43% amplitude, relative to the total amplitude expected for a full dissociation). Therefore, at the end point of this reaction, the filament concentration decreased by about 2-fold (turbidity is proportional to concentration over this range; Fig. S5b). There should also be a corresponding rise in M200 monomer concentration, but this may be less than accounted for by the loss of filaments if the drop in turbidity was also associated with a rise in small M200 oligomers with a lower specific turbidity. […]

[3] = tested on: M200 filamentous bundles; test: Electron microscopy of myosin IIA tail fragments; parameters: species or system human; conditions: two times stoichiometric S100A4, Ca^2+, 0.1 M Na-acetate
Description: Fig. 8 Characterisation of myosin IIA coiled-coil tail fragments. Metal-shadowed electron micrographs of (a) M200 and (b) M111 deposited from 0.5 M ammonium acetate. Scale bar represents 50 nm. (c and d) Electron micrographs of a negatively stained M200 tail fragment. Fields of M200 (c) in the absence and (d) in the presence of a 2-fold molar excess of S100A4, respectively. Arrows point to individual strands emerging from images of filamentous bundles. The samples were prepared in 0.1 M sodium acetate buffer, where M200 formed large filamentous aggregates but were solubilised in the presence of S100A4. Scale bar represents 200 nm (see Materials and Methods for details).
For negative staining, the stock solution of the M200 tail fragment was diluted with a solution consisting of 0.1 M Na-acetate, 3 mM MgCl2, 0.1 mM CaCl2, 10 mM imidazole, and 5 mM NaH2PO4 (pH 7.0), with or without 14 μM S100A4, to give a final concentration of 7 μM M200. Following dilution, 5 μl of the mixture was applied to a grid with a thin carbon film supported by a holey carbon film, and the grid was negatively stained using 1% uranyl acetate. […] Images were recorded on a 2000 × 2000 F224HD slow-scan CCD camera (TVIPS, Gauting, Germany) at a magnification of 65,000× (0.37 nm pixel^− 1). The lengths of nonoverlapping well-shadowed molecules were measured as described by Burgess et al.[47]

For “S100A4: recombinant S100A4 expressed in E. coli BL21(DE3)”, the “protein concentration at which monomer is detected” value ([1]; absence of Ca^2+) is given as “below 2 μM”, the “concentration at which tetrameric and higher aggregates become significant” value ([1]; presence of Ca^2+) is given as “exceeding 20 μM” and the “Ca^2+ affinity of tetramer relative to dimer” value ([1]; suggested by ultracentrifuge data) is given as “about 20 -fold”. For the same substance, the “decrease in turbidity on NaCl jump” value ([2]; 20 μM S100A4, 5 μM M200, 100 to 120 mM NaCl) was 87%, the “initial rate relative to absence of S100A4” value ([2]; 20 μM S100A4, NaCl jump) was “five times faster than in the absence of S100A4” and the “kobs, biphasic fit” value ([2]; 20 μM S100A4, NaCl jump) was 0.21 s^− 1. The “rate constant (single exponential)” value ([2]; 20 μM S100A4, NaCl jump) was 0.19 s^− 1 and the “M200 filamentous bundles after S100A4 addition” value [3] was “no trace of filamentous bundles was observed”.
